Laboratory results from patent publication US20190218308A1 (INNATE PHARMA, published 2019).

Experiments:
[1] = molecular target: T1, human CD39 (NTPDase1, ENTPD1), membrane-bound, on cells (human, UniProt P49961 1-510); assay: cell-based or functional assay
T1 sequence: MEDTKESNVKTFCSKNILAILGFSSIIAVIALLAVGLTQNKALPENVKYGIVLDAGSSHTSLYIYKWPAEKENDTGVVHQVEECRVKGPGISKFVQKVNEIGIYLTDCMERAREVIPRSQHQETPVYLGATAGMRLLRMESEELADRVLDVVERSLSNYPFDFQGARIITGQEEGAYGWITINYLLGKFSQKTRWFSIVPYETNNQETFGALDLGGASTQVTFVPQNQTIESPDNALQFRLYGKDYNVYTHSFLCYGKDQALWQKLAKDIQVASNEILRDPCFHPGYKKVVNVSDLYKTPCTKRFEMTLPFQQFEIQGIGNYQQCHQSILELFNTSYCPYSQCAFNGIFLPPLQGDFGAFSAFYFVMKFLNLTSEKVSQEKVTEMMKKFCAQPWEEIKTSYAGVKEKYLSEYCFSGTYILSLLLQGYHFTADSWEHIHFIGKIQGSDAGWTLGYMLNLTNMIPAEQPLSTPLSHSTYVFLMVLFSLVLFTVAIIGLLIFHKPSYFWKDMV

[2] = molecular target: T2, CD39-M2 extracellular domain recombinant protein (soluble human CD39) (human, UniProt P49961 38-478); assay: cell-based or functional assay
T2 sequence: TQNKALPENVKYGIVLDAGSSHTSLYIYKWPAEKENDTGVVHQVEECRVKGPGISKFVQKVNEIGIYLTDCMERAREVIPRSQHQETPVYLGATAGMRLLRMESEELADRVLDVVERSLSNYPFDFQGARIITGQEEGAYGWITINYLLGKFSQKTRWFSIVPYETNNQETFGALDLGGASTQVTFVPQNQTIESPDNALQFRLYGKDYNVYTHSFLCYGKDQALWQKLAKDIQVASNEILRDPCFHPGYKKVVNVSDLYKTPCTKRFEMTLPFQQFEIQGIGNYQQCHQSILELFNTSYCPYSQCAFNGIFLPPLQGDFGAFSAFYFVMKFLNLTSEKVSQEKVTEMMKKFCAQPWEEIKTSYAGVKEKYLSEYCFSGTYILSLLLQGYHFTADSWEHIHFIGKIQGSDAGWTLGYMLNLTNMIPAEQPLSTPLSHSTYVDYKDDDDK

CD39 mutant 5 = molecular target: T3, CD39 mutant 5 (human, UniProt P49961 1-510); assay: flow cytometry, Hek-293T cells transfected with CD39 mutant 5 (panel M5), Comp-Alexa Fluor 647-A
T3 construct: Expressed on Hek-293T cells; also called M5
T3 chain: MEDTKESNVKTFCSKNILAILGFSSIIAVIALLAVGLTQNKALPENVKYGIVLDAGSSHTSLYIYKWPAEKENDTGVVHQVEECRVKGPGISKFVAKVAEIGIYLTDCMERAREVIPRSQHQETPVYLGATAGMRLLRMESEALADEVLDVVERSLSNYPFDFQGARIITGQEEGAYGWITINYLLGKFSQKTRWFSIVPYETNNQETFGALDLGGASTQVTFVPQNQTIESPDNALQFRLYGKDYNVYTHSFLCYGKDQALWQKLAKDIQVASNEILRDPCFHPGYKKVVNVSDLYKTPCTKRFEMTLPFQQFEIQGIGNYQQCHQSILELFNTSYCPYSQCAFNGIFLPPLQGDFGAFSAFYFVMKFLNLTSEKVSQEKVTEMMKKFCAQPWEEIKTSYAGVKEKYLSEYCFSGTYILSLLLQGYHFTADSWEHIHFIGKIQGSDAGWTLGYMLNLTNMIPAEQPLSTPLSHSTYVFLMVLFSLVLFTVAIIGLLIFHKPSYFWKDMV
Description: Mutants were transfected in Hek-293T cells, as shown in the table 1, using numbering of SEQ ID NO: 2. […] Mutant 19 includes substitutions at residues R138, M139 and E142.
Mutants were transfected in Hek-293T cells, as shown in the table 1, using numbering of SEQ ID NO: 2. Dose-ranges of test antibodies (10-2.5-0.625-0.1563-0.0391-0.0098-0.0024-0.0006 μg/ml) are tested on the 20 generated mutants by flow cytometry.

[3] = molecular target: T1, human CD39 (NTPDase1, ENTPD1), …; assay: flow cytometry titration on CHO cells expressing human CD39 (panel CHO-huCD39)
Description: Cells were incubated with various concentration of unlabeled anti-CD39 antibody from 30 μg/ml to 5×10⁻⁴ μg/ml, for 30 minutes at 4° C. After washes, cells were incubated with Goat anti-mouse H+L labeled secondary antibody for 30 min at 4° C.

- IC50 (inhibition of 50% of the enzymatic activity of CD39 expressed by 50,000 Ramos cells) [1]: 0.05 µg/mL
- IC50, inhibition of the ATPase activity of soluble CD39 protein [2]: 0.003 µg/mL
- binding result (CD39 mutant 5): binds
- EC50 (read off the curve) [3]: ~0.2 µg/mL
B1: antibody I-394 (antibody, human IgG1, kappa, V domains shown)
VH: EVQLQQSGPELVKPGASVKMSCKASGYTFTDYNMHWVKQSHGRTLEWIGYIVPLNGGSTFNQKFKGRATLTVNTSSRTAYMELRSLTSEDSAAYYCARGGTRFAYWGQGTLVTVSA
VL: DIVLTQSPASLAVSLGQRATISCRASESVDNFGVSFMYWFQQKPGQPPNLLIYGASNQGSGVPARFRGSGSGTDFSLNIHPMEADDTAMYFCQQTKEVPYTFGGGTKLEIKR
